This is an account of results in the DeepSol protein solubility set.

This data set is described as follows: soluble on expression in E. coli; label from the status in PepcDB or PDB records.
In the case of “MSLMYKVLLVDDEYMILQGLTMIIDWQALGFEVVQTARSGKEALTYLTQYPVDVMISDVTMPGMTGLDLIEAAKTYHPQLQTLILSGYQEFSYVQKAMELETKGYLLKPVDKAELQAKMKQFKDCLDAQQAESIRQEAYHDSLLTLWLTDELSEKEFQQLSQGLPAAALIGFTVLYLDCQEWQAAIDAYFEQEGQPFYLKKEEDKKVYLAVLLGKTDQAKAFTYDLQKRFSRNMHQLILGETVDDWENVYESYNQVLKSLFYNCEVSPIRAKDKSKIELPESRLQFFAFNKALMIGDEPTILSKLEAIFDEMKTLNFSPEDVKHVSFLLFSDIYRQFPILDKMTYLSMVKTIHDSQSIDRILRELKKVLDVTNQNNSPEKRYSDLVSETIDCIRKEYHQELTLKAIADRLHVNGVYLGQCFKNETERSFTQYLNHVRIQKAQQLLLYTNQSINEIAYETGYNTNHYFIKMFKKLNGLSPKEFRDRYKDNYQAEGHHHHHH”, the “soluble on expression in E. coli” value is “soluble”.

For “MAKKDEVGGRVLQDVFLDWAKKYGPVVRVNVFHKTSVIVTSPESVKKFLMSTKYNKDSKMYRALQTVFGERLFGQGLVSECNYERWHKQRRVIDLAFSRSSLVSLMETFNEKAEQLVEILEAKADGQTPVSMQDMLTYTAMDILAKAAFGMETSMLLGAQKPLSQAVKLMLEGITASRNTLAKFLPGKRKQLREVRESIRFLRQVGRDWVQRRREALKRGEEVPADILTQILKAEEGAQDDEGLLDNFVTFFIAGHETSANHLAFTVMELSRQPEIVARLQAEVDEVIGSKRYLDFEDLGRLQYLSQVLKESLRLYPPAWGTFRLLEEETLIDGVRVPGNTPLLFSTYVMGRMDTYFEDPLTFNPDRFGPGAPKPRFTYFPFSLGHRSCIGQQFAQMEVKVVMAKLLQRLEFRLVPGQRFGLQEQATLKPLDPVLCTLRPRGWQPAPPPPPCHHHH”, the “soluble on expression in E. coli” value is given as “soluble”.

Regarding “MARNRLTESEMNEALRALDGWQKVDGREAITRSFKFKDFSTAFGFMAQAALYAEKLDHHPEWFNAYNRVDVTLATHSENGVTELDIKMARKMNAIAG”, the “soluble on expression in E. coli” value is listed as “soluble”.

Take “MNRRLELYYTRQLLVISKYCQDQTKEIVLPTVGQNIGDSWITDIFVKLREKLVKYTTQVSRPLATKVVQDSQKEVDAQIAEHTKSIIGVDLTPFYRASDIQDVVDTNIAANVALIKSIPNQYVDKLEALVMNAFQTGQTNEDLAKAIAQLGQSTDSRARLIAADQMGKVNGQINKARQLSMGVETYVWQTAKDERVRKDHQHKQGKTFRWDDPPTGGHPGEPIRCRCTALPNYEDILVD”: the “soluble on expression in E. coli” value is on record as “not soluble”.

In the case of “MNNSNRIIPFAFKSSEHGSYEDEMMEMEDVVDVEDYMGGEKYDSYNDAKEDIKDFKTTQRMKKIHRMEKIEQNIASEKIDIIELGTRVMVSTSDKTLNEASLERTIRCGISEATFLGDISMESLVEGMVNPSAADGRFAMLGTSIMLNALKSNIKDLRGTIVGQTTNTNSESKFDKIDLSLMNLSHCQQTSYNIRATGVFSNADLQYVFSLLTFRRNAKLLNKTKQFIKAYFCVACRPRCMIWRYTLRRAGNSQRRAILNLPSAIVSTITQFLLDLTGISDANIPYDQLDPMTPLSISLGEDESMRVQRYEEACRLKDPLTRFFRDAITDCLNELREMPFCLNTGILLSPLRGREQGTSCVTWKDYEGFLKREHDLPSEANMKKRTQFEQRLCDIIPRVRRPVPN”, the “soluble on expression in E. coli” value is “not soluble”.

On to “MIMAANEKEMRIKIIKDGPYRVTGGVPLLEQVIVTDDDGHTRDLIDIKEYPRREAYILCRCGSSENKPFCDGAHRKVGFDGSETASRTPYLEKAETFEGPDLKLTDVYELCDHSRFCQRSGGIRDLIQKSDDPEARQTAIEEAMICPSGRLVLWDKKTGKPFEKEFDPSIILVHDKQKGCEGPLWVRGGVPIESADGSMYEPRNRVTLCRCGKSENKPYCDGSHWMNSQQKLEFRKKWGLELEHHHHHH”, for which the “soluble on expression in E. coli” value is “not soluble”.

Take “SASSIICQEHCQISGQAKIDILLVGDVTVGYLADTVQKLFANIAEVTITISDTKEAAALLDDCIFNMVLLKVPSSLSAEELEAIKLIRFGKKKNTHSLFVFIIPENFKGCISGHGMDIALTEPLTMEKMSNVVKYWTTCPSNTVKTENATGPEELGLPLQRSYSEHLGYFPTDLFACSESLRNGNGLELNASLSEFEKNKKISLLHSSKEKLRRLYRKHSSFCFW”: the “soluble on expression in E. coli” value is recorded as “soluble”.

With “MGELANCPKCNALFLKTKLQTVCQACIKEEEKSFETVYKFLRKQENRQSTLSRITEETGVEEELILKFIRQKRIQITHLPNLAYPCERCGTSIREGKFCKACQSDIKDQMDHLNHEDALKIEKENSKKDTYYAYNTKNSLEHHHHHH”, the “soluble on expression in E. coli” value was “soluble”.

Turning to “MLQQVREQVAARLRLDAGRPWLMVHAGSGGSANNLSIEQYARLIIKLNQACPELQCILTAGPGEERIAEQLAAELLAHGGNGWIYRSDEGLPKFCQVMANAALFVAGSTGPLHIAAALDVPTIGFFPAHRSATPLRWRPLNSEGRHLAFSPPEDSDHPEDMSQLDPKTMAAAIARWAPPFWRTEHLEHHHHHH”, the “soluble on expression in E. coli” value is “not soluble”.

“MAHHHHHHMFRFCGRRLVARTLPLLADYQELPEAFEFMEHKVADKDIHSAYENMETLRLTVTRQDEFLFKETPVKCVTIVGVNGECGVYPGHAYEITQLTPAPLTVEMPDGTVKKFFTSGGFAHINNEGSCDINCVECIPLTELDVDAAEKALAQQQSALNSAHDDKARAVIEIRIGVLESVIQSLKHA”: the “soluble on expression in E. coli” value was “not soluble”.

With “MSLNKIIHHYEVFKDFYGMEEPIEQIVGFLKHAAQGLEETKQVLYLLGPVGGGKSSIAEKLKDLMERIPFYAIKGSPVFESPLSLFNPLEDGELLRERFGIPTRYLRYLMSPWAVKRLQEYNGDISKFRVIKVKPSRLKQIAIAKTEPGDENNQDISSLVGKVDIRKLEEFSQDDPDAYSYSGGLCRANRGLLEFVEMFKAPIKVLHPLLTATQEGNYNATEGLSAIPFEGIILAHSNESEWQSFRNNKNNEAFIDRINIVKVPYCLRVSEEIKIYQKLIHNSSLANAPCAPGTLDMLAQFSVLTRLKEPQNSSIYSKMRVYNGESLKDTDPKAKSYQEYRDFAGVDEGMSGISTRFAFKILSKVFNFDHTEVAANPVHLMYVLERQIEQEQFPQELHETYLNFIKEYLATKYVDFIGKEIQTAYLESYSEYGQNIFDRYITYADFWIQDQDYRDPDTGEIFDRALLNLELEKIEKPAGISNPKDFRNEVVNFVLRARANNRGKNPVWNSYEKLKSVIEKKMFTNTEDLLPVISFNAKASEEDKKKHEEFISRMVEKGYTRKQVRLLCEWYLRVRKSQEGHHHHHH”, the “soluble on expression in E. coli” value is given as “not soluble”.

For “MTQFNPVDHPHRRYNPLTGQWILVSPHRAKRPWQGAQETPAKQVLPAHDPDCFLCAGNVRVTGDKNPDYTGTYVFTNDFAALMSDTPDAPESHDPLMRCQSARGTSRVICFSPDHSKTLPELSVAALTEIVKTWQEQTAELGKTYPWVQVFENKGAAMGCSNPHPHGQIWANSFLPNEAEREDRLQKEYFAEQKSPMLVDYVQRELADGSRTVVETEHWLAVVPYWAAWPFETLLLPKAHVLRITDLTDAQRSDLALALKKLTSRYDNLFQCSFPYSMGWHGAPFNGEENQHWQLHAHFYPPLLRSATVRKFMVGYEMLAETQRDLTAEQAAERLRAVSDIHFRESGV”, the “soluble on expression in E. coli” value is listed as “soluble”.

“MSLQNTVPSETPSPATPSPTSTVNLSDVSSDYWARPFIQAMADNNVIAGFPDGSFRPNQAVTRAEFAALIQKAFPNQNRVRQLSAGGFRDVPAGYWAISPIQYAYETGFLAGYPGNVFSPNQQIPKVQAIVAMTSGLGLTASNTGASTDLSTYYTDASSIPQYAIASVTTATQSNIVVNYPDVKQMNPQQPLTRAEVAALLYQALAKQGRVQPIASNLPASQYIVGGTEGHHHHHH”: the “soluble on expression in E. coli” value is on record as “soluble”.

In the case of “MFDPREKIALFIDGANLYAASKSLGFDIDYRKLLKAFQKRGYLLRAYYYTALIEDQEYSSIRPLIDWLDYNGYKVVTKPAKEFTDSLGRRKIKGNMDIELAIDAMEQSESVDHLVIFSGDGDFTTLVEALQRKGRKVSVVSTMSTQPPMIADDLRRQADHFIDLATLRGEIGREPSERVQRPVEPVADDVEL”, the “soluble on expression in E. coli” value is recorded as “not soluble”.

Regarding “MTIVAENLTKHLSNLSKRGPHRVLVGDLDYVGLPGKIYTPAEGNGLPAVVFAHDWMQDISRYHATLRHLASWGIVVAAPNTEKGISPNHRGFAADIETSLQVLTGVKLGAGNISVAPGRLGIVGHGMGAGAAVLAAADRPQIAAVAAIYPSQVSPSADVAARNVEAAGLVLGTEENAMFDFGNAAKLALEWKGPVAYREIDRASHQTLTENTLFKRVTGLGGTNTAARERIRGVVTGFLLHQLADQKKYSGFSEADATGKKVHSYWGEELQERASLTGDSKLTLFKS”, the “soluble on expression in E. coli” value was “not soluble”.

“GPGSMHLSELCRDSNIDVIIARLRQVAPLEPAPAFSLSEGAADDDTTPATGHSDFHGLWSYQDNDGRTAFHWAIALKNFDLARKLMQAPYNSPVLTEDEEWSTPFATACSVGAPLDLLREILDRSVVELAAHMKQKETQQNPTSEEQNSSSAAVTEPAEGSSDGKPTKFLSDMPGILQPVDGTPASISAVLVDAEDATGQTPLLLAVGRGHLSIVRFLLENGANLMHQNRRGQSCLHRAVNRGNMELVEFLVSTSENNAKSKAVHRVWMDLRDKHGDSALFYASMDNNEEIGRYLLRHGADRELRNADGKAFWEV”: the “soluble on expression in E. coli” value was “soluble”.

For the sequence “VVGNMTPDFLGSVATTLTWKDLSLNVGLDMRFGGLVASYCNLYGTQAGWTESSLQYRDPEHGGMTWTSQYADSKGIQYTDGMIPEGVFKEGTIATLVDGTKMDVSGLSYAQLVQEGKLEPTHAGSWYGNNYAWGAQTIDDIWVHKLSYIALRNITINYRLPNSISHKLGAKGLNLSFSARNLGYLYNSLPNNLNPESVRSNSASEFRIRGFEPYTASYIFTINANF”, the “soluble on expression in E. coli” value is “not soluble”.

Turning to “MSLKVVSLLTDFGDFYPGVMKGVILSLAPEARIVDITHSVEPQNILQGAFLLYHSFRYFRNAVHVAVVDPGVGSERRALVIEGKNHFFVGPDNGILYPSAVEDGIKAAYSIKEEISELVGELSSTFHGRDIFAPAAAMVVRGDYTYFEEINKEELEKLELFDCSIQGNKVRCRVVYVDRFGNVVTNLREVKGKGFYFRGVEFPFVKTYSDVDVGKPLSLIGSFGTLELSVREGSAAEMLGIKRGGGWIELEVLEGGSHHHHHH”, the “soluble on expression in E. coli” value is on record as “soluble”.

Turning to “MGSDKIHHHHHHMIVVKPSPGSAQSIPANANGPKWDVGEAVSQLSWDDLRIIKTLSDCSNRAATAKKLGINVSTVSRRVAQVEKTLGVALFDHRKAGYLLTAEGVELRALAERVELDIVSVTRRVSRAGQGPLGKLRITTSDSLLLYFLTPIIADFKALNEGITIEVLVGNQTLSLARDESDIAVRATKKPTDTLVGRKLANIAWAAYGSVKQAAITDPFAEGQAWVSYSGGLCGLKATSYVECRVPSELISYRTDSVAAASAAIAAGLGFGFLPCMLGDITPGLVRAGPVVQELQDELWLLTHQDIRKSWRVKAFMTFCAAAVADLKPLVEGQQAIPAS”, the “soluble on expression in E. coli” value is recorded as “not soluble”.

Take “MAHHHHHHMSWRVSCKTALLDELFTYIAGKTDANTLQKECVLALPQLETLAKMLGFSLDDMSMYRLAWSWSCEAPLCIRKSEFVNGMNAICSGVKLSATATSSTCSASPVKSPKKEFEPILLALRNHVETLDGALRGDVTKFRHFYRFIYKWVQSPLTMERNMGQVGMSIETAVELWRMLFPHYREFKRLDDWITFCMSKKLFPHGIISRDLWEQLLEFTFVTDYSKYDVSDAWPSAMDDFVEYVKSKV”: the “soluble on expression in E. coli” value was “not soluble”.

As for “MTIQHQFAENLSRLKKEHGLKNHQIAELLNVQTRTVAYYMSGETKPDIEKLIRLATYFHLSIDELVGYVQEDKVWNDLSLKQWLLSLNLRSEEEIAKIKILVDTVETLYPN”, the “soluble on expression in E. coli” value was “not soluble”.
